Entries after “also recorded” stand apart in the source; their conditions may differ. Ends that are not written are not given here.
T1: IL-11 (Homo sapiens, UniProt P20809)
T1 sequence (P20809 22-199): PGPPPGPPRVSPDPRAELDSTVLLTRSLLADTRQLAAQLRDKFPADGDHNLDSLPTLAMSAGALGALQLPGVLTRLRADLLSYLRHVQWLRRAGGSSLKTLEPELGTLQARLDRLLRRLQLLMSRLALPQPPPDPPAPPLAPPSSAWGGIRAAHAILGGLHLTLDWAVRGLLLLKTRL


Tests used:
Interleukin-11 (IL-11) = test: cell-based or functional assay
IL-11 and IL-11R = test: productive interaction of IL-11 and IL-11R; design: species or system human; conditions: no test named at this place
[1] = system: cocultures of murine bone marrow and calvaria cells; test: TRAP assay: osteoclast formation in cocultures; format: cell-based; conditions: for inhibition of IL-11 induced osteoclast formation (TRAP+ multinucleated cells): 20 ng/ml IL-11, 10, 100 or 1000 ng/ml test substance, 9 days, FIGS. 7A, 7B, 8
Text: Particular IL-11 antagonists useful in the treatment of IL-11 related bone density disorders may be identified using the TRAP assay and the bone nodule formation assay, discussed herein. The TRAP assay is known in the art and involves co-culturing murine calvaria (osteoblasts) and bone marrow cells in vitro and then quantifying osteoclast formation by counting the number of tartrate-resistant acid phosphatase positive (TRAP+) multinucleated cells. […] These potential IL-11 antagonists may be screened to determine if they are IL-11 antagonists by examining their activity in the TRAP assay and the bone nodule formation assay.
Post menopausal osteoporosis is characterized by a general reduction in bone mass, resulting from an imbalance between osteoblast-mediated bone formation and bone resorption by the osteoclast. While the osteoblast is responsible for the formation of new bone or osteoid, it also appears to control the activation and/or number of osteoclasts by releasing cytokines such as IL-6 or IL-11. This process can be examined using a “TRAP assay” which involves co-culturing murine calvaria (osteoblasts) and bone marrow cells in vitro and then quantifying osteoclast formation by counting the number of tartrate-resistant acid phosphatase positive (TRAP+) multinucleated cells. Ovariectomized (OVX) rats or mice provide a satisfactory animal model for postmenopausal women in studies of osteoporosis.
The effect of IL-11 on osteoclast development in cocultures of murine bone marrow and calvaria cells was examined using standard techniques. Briefly, bone marrow cultures were established by removing femurs from mice, dissecting away soft tissue, and removing the distal and proximal ends of the femur. The marrow was then flushed with 5 ml α MEM and 1.0% penicillin-streptomycin using a 25 gauge needle. The bone marrow cells were then suspended to a concentration of 5 000 000 cells per ml in α MEM containing 15% fetal calf serum (charcoal treated) to remove cells adherent to plastic. The non-adherent cells were then co-cultured for an additional 9 days with murine calvaria cells prior to being fixed and stained for TRAPase activity (stains were obtained from Sigma Chemical Co., St. Louis, Mo.). TRAP+ MNC's have the ability to form resorption pits in smooth cortical bone slices and are therefore considered to be of osteoclast origin.
The effect of IL-11 on osteoclast development in cocultures of murine bone marrow and calvaria cells was examined by maintaining these cultures in the presence of various specific concentrations of IL-11 for 9 days. After 9 days of culture, the cells were stained for TRAPase activity and the number of multinucleated TRAP+ cells were determined. The results of this experiment are depicted in Table I. Data are expressed as mean +/− SEM. […]

[2] = system: murine calvaria cell culture; test: bone nodule formation assay with IL-11 antagonists in the presence of exogenous IL-11; format: cell-based; conditions: 20 ng/ml exogenous IL-11; for reduction of the inhibitory effect of IL-11 on bone nodule formation: very low levels/concentrations of test substance, 21 days, FIGS. 9, 10
Protocol: Bone nodule formation was measured using standard techniques. Briefly, calvaria cell cultures were established as follows: Calvaria cells were obtained from 2 day old fetal mouse calavariae by collagenase digestion. The cells were then cultured for 21 days in the presence of 0.5 mM ascorbic acid and 10 mM β-glycerophosphate. Where indicated in the experimental descriptions below, IL-11 and the mutant IL-11 receptor of experiment 4 were added to the culture at day 0 and every 3–4 days thereafter until the removal of the medium for analysis. Bone nodule formation was quantified by counting alizarin red stain nodules under a light microscope.
The effect of a gp130 binding region mutant soluble IL-11 receptor of type described in Experiment 4 and produced by the process of Experiment 3 on bone nodule formation in the presence of 20 ng/ml of exogenous IL-11 was assessed, and the results are depicted in FIG. 9. […] Thus, IL-11 antagonists such as mutant IL-11Rs can enhance bone nodule formation.
It was desired to determine if bone nodule formation could be modulated in a manner similar to that reported in Example 6 using an IL-11 antagonist peptide such as the one used in Example 5. To achieve this, the procedure of Example 6 was repeated, with the substitution of peptide 1 for the solubilized mutant IL-11 receptor. The results of this experiment are depicted in FIG. 10.

[3] = system: murine calvaria cells (primary osteoblasts); test: bone nodule formation assay: effect of IL-11 alone; format: cell-based; conditions: various concentrations of IL-11; 250 μM ascorbic acid, 10 mM β-glycerol phosphate; FIG. 5
Protocol: The effect of IL-11 on bone formation was examined using the bone nodule formation assay. Murine calvaria cells (primary osteoblasts) were cultured in the presence of 250 μM ascorbic acid and 10 mM β-glycerol phosphate, and in the presence of various amounts of interleukin-11. After culturing, the culture media were plated out and the number of bone nodules per plate was counted.
The results are shown on the accompanying FIG. 5, where number of bone nodules per plate is plotted as the vertical axis, with the different concentrations of interleukin on the horizontal axis, not to scale. Each bar represents the result on experiments containing a different concentration of interleukin-11, as noted on FIG. 5.

gp130 = conditions: Karow et al., Biochem J. (1996); cited from earlier work
IL-11 = biological target: T1, IL-11; conditions: Karow et al., Biochem J. (1996); cited from earlier work

Molecule | inhibition of the productive interaction of IL-11 and IL-11R (IL-11 and IL-11R) | inhibition of IL-11 induced osteoclast formation (TRAP+ multinucleated cells) [1] | reduction of the inhibitory effect of IL-11 on bone nodule formation [2] | other results
H289→Y289 mutant solubilized IL-11 receptor (from UniProt Q14626 24-370) |  |  |  | concentration of mutant receptor allowing enhanced bone nodule formation relative to no exogenous IL-11 (Interleukin-11 (IL-11)): 10 ng/mL
RRLRASW [SEQ ID NO. 5] | capable of inhibiting the productive interaction of IL-11 and IL-11R |  |  | 
RRLRASWTYPASWPCQPHFL [Peptide 1] | binds IL-11 and prevents its productive interaction with IL-11R | inhibits IL-11 induced osteoclast formation | able to reduce the inhibitory effects of 20 ng/ml exogenous IL-11 | 
SILRPDPPQGLRVESVPGYP [SEQ. ID. NO. 6] | inhibit the productive interaction between IL-11 and IL-11R |  |  | 
Thr Tyr Pro Ala Ser Trp Pro Cys Gln Pro His Phe Leu Leu Lys Phe Arg Leu Gin Tyr (TYPASWPCQPHFLLKFRLQY; listed as Homo sapiens) [Peptide 2, reference compound] |  | does not | unable to reduce the inhibition of nodule formation by IL-11 | 
H289→Y289 mutant solubilized IL-11 receptor: soluble human IL-11 receptor mutated H289 to Y in the gp130 binding region, expressed in BHK cells (protein, left off: small tags and cut ends) SPCPQAWGPPGVQYGQPGRSVKLCCPGVTAGDPVSWFRDGEPKLLQGPDSGLGHELVLAQADSTDEGTYICQTLDGALGGTVTLQLGYPPARPVVSCQAADYENFSCTWSPSQISGLPTRYLTSYRKKTVLGADSQRRSPSTGPWPCPQDPLGAARCVVHGAEFWSQYRINVTEVNPLGASTRLLDVSLQSILRPDPPQGLRVESVPGYPRRLRASWTYPASWPCQPHFLLKFRLQYRPAQHPAWSTVEPAGLEEVITDAVAGLPYAVRVSARDFLDAGTWSTWSPEAWGTPSTGTIPKEIPAWGQLHTQPEVEPQVDSPAPPRPSLQPHPRLLDHRDSVEQVAVLA |  | capable of inhibiting IL-11-induced osteoclast formation | can reverse the effect of exogenous IL-11 | bone nodule formation relative to level without exogenous IL-11 ([2]; 10 ng/ml mutant receptor, FIG. 9): enhanced bone nodule formation relative to the level observed in the absence of exogenous IL-11
IL-11: cytokine interleukin-11, added exogenously to cultures (protein, UniProt P47873 22-199, looked up) Interleukin-11: PGPPAGSPRVSSDPRADLDSAVLLTRSLLADTRQLAAQMRDKFPADGDHSLDSLPTLAMSAGTLGSLQLPGVLTRLRVDLMSYLRHVQWLRRAGGPSLKTLEPELGALQARLERLLRRLQLLMSRLALPQAAPDQPVIPLGPPASAWGSIRAAHAILGGLHLTLDWAVRGLLLLKTRL |  |  |  | effect of IL-11 on osteoclast formation in vitro ([1]; cocultures of murine calvaria and bone marrow cells): potent simulator of osteoclast formation; number of bone nodules per plate (bone formation) [3]: can inhibit bone nodule formation; also recorded: inhibits bone formation; affinity for gp130 (gp130): below the level of detection
soluble form of murine interleukin-11 receptor: soluble form of murine IL-11R produced by Karow et al. (protein, left off: small tags and cut ends) SPCPQAWGPPGVQYGQPGRSVKLCCPGVTAGDPVSWFRDGEPKLLQGPDSGLGHELVLAQADSTDEGTYICQTLDGALGGTVTLQLGYPPARPVVSCQAADYENFSCTWSPSQISGLPTRYLTSYRKKTVLGADSQRRSPSTGPWPCPQDPLGAARCVVHGAEFWSQYRINVTEVNPLGASTRLLDVSLQSILRPDPPQGLRVESVPGYPRRLRASWTYPASWPCQPHFLLKFRLQYRPAQHPAWSTVEPAGLEEVITDAVAGLPHAVRVSARDFLDAGTWSTWSPEAWGTPSTGTIPKEIPAWGQLHTQPEVEPQVDSPAPPRPSLQPHPRLLDHRDSVEQVAVLA |  |  |  | affinity for IL-11 ligand (IL-11): high affinity

— patent publication US6998123B1, “Osteoporosis treatment with anti-IL-11 antibody” (priority 1998, dated 2006)
